From article PMC3834829, “A signature motif mediating selective interactions of BCL11A with the NR2E/F subfamily of orphan nuclear receptors” (Nucleic Acids Research, 2013)

B1: LexA-NSD1-(790–818) [not stated] / AAD-ERα-LBD-(282–595) [not stated] (parent complex)
chain 1: SSQNHIPIEPDYKFSTLLMMLKDMHDSKT
chain 2: SAGDMRAANLWPSPLMIKRSKKNSLALSLTADQMVSALLDAEPPILYSEYDPTRPFSEASMMGLLTNLADRELVHMINWAKRVPGFVDLTLHDQVHLLECAWLEILMIGLVWRSMEHPGKLLFAPNLLLDRNQGKCVEGMVEIFDMLLATSSRFRMMNLQGEEFVCLKSIILLNSGVYTFLSSTLKSLEEKDHIHRVLDKITDTLIHLMAKAGLTLQQQHQRLAQLLLILSHIRHMSNKGMEHLYSMKCKNVVPLYDLLLEMLDAHRLHAPTSRGGASVEETDQSHLATAGSTSSHSLQKYYITGEAEGFPATV
B2: AAD-COUP-TFII-LBD-(144–414) [not stated] / LexA-BCL11A-(651–670) [not stated] (parent complex)
chain 1: MRREAVQRGRMPPTQPTHGQFALTNGDPLNCHSYLSGYISLLLRAEPYPTSRFGSQCMQPNNIMGIENICELAARMLFSAVEWARNIPFFPDLQITDQVALLRLTWSELFVLNAAQCSMPLHVAPLLAAAGLHASPMSADRVVAFMDHIRIFQEQVEKLKALHVDSAEYSCLKAIVLFTSDACGLSDVAHVESLQEKSQCALEEYVRSQYPNQPTRFGKLLLRLPSLRTVSSSVIEQLFFVRLVGKTPIETLIRDMLLSGSSFNWPYMAIQ
chain 2: NTENVYSQWLAGYAASRQLK
B3: LexA-BCL11A-(651–670) [not stated] / AAD-COUP-TFI-LBD-(151–467) [not stated] (parent complex)
chain 1: NTENVYSQWLAGYAASRQLK
chain 2: MRREAVQRGRMPPTQPNPGQYALTNGDPLNGHCYLSGYISLLLRAEPYPTSRYGSQCMQPNNIMGIENICELAARLLFSAVEWARNIPFFPDLQITDQVSLLRLTWSELFVLNAAQCSMPLHVAPLLAAAGLHASPMSADRVVAFMDHIRIFQEQVEKLKALHVDSAEYSCLKAIVLFTSDACGLSDAAHIESLQEKSQCALEEYVRSQYPNQPSRFGKLLLRLPSLRTVSSSVIEQLFFVRLVGKTPIETLIRDMLLSGSSFNWPYMSIQCS
B4: LexA-BCL11A-(651–670) [not stated] / AAD-EAR2-LBD-(121–399) [not stated] (parent complex)
chain 1: NTENVYSQWLAGYAASRQLK
chain 2: MRKEAVQRGRIPHSLPGAVAASSGSPPGSALAAVASGGDLFPGQPVSELIAQLLRAEPYPAAAGRFGAGGGAAGAVLGIDNVCELAARLLFSTVEWARHAPFFPELPVADQVALLRLSWSELFVLNAAQAALPLHTAPLLAAAGLHAAPMAAERAVAFMDQVRAFQEQVDKLGRLQVDSAEYGCLKAIALFTPDACGLSDPAHVESLQEKAQVALTEYVRAQYPSQPQRFGRLLLRLPALRAVPASLISQLFFMRLVGKTPIETLIRDMLLSGSTFNWP
B5: LexA-BCL11A-(310–325) [not stated] / AAD-COUP-TFI-LBD-(151–467) [not stated] (parent complex)
chain 1: PPAMDFSRRLRELAGN
chain 2: B3 chain 2
B6: LexA-BCL11A-(310–325) [not stated] / AAD-EAR2-LBD-(121–399) [not stated] (parent complex)
chain 1: PPAMDFSRRLRELAGN
chain 2: B4 chain 2
B7: LexA-BCL11A-(310–325) [not stated] / AAD-PNR-LBD-(131–410) [not stated] (parent complex)
chain 1: PPAMDFSRRLRELAGN
chain 2: HLDSMESNTESRPESLVAPPAPAGRSPRGPTPMSAARALGHHFMASLITAETCAKLEPEDADENIDVTSNDPEFPSSPYSSSSPCGLDSIHETSARLLFMAVKWAKNLPVFSSLPFRDQVILLEEAWSELFLLGAIQWSLPLDSCPLLAPPEASAAGGAQGRLTLASMETRVLQETISRFRALAVDPTEFACMKALVLFKPETRGLKDPEHVEALQDQSQVMLSQHSKAHHPSQPVRFGKLLLLLPSLRFITAERIELLFFRKTIGNTPMEKLLCDMFKN
B8: AAD-COUP-TFII-LBD-(144–414) [not stated] / LexA-BCL11A-(310–325) [not stated] (parent complex)
chain 1: B2 chain 1
chain 2: PPAMDFSRRLRELAGN

Variants of: B1
Assay: yeast two-hybrid; + 1µM E2; read off a plot

Row | Variant | response
1 | chain 1 L18A | ~1800 nmol/mg/min
2 | chain 1 M19A | ~2700 nmol/mg/min
3 | chain 1 L21A | ~0 nmol/mg/min
4 | chain 1 D23A | ~1700 nmol/mg/min
5 | chain 1 F14A | ~2400 nmol/mg/min
6 | chain 1 L17A | ~0 nmol/mg/min

Now from value to variant:

Row | response | Variant
7 | ~2100 nmol/mg/min | chain 1 K13A
8 | ~0 nmol/mg/min | chain 1 M20A
9 | ~0 nmol/mg/min | chain 1 S15A
10 | ~2500 nmol/mg/min | chain 1 K22A
11 | ~2000 nmol/mg/min | chain 1 Y12A

Variants of: B2
Assay: yeast two-hybrid; read off a plot

Row | Variant | response
12 | chain 1 R85A | ~1200 nmol/mg/min
13 | chain 1 V99A | ~2700 nmol/mg/min
14 | chain 1 R103A | ~1900 nmol/mg/min
15 | chain 1 V81A | ~20 nmol/mg/min

Further lines, results first:

Row | response | Variant
16 | ~2900 nmol/mg/min | chain 1 I95A
17 | ~40 nmol/mg/min | chain 1 F78A

Variants of: B3
Assay: yeast two-hybrid; read off a plot

Row | Variant | response
18 | chain 1 Y6A | ~50 nmol/mg/min
19 | chain 1 V5A | ~220 nmol/mg/min
20 | chain 1 G12A | ~2300 nmol/mg/min
21 | chain 1 W9A | ~0 nmol/mg/min
22 | chain 1 S7A | ~0 nmol/mg/min
23 | chain 1 Q8A | ~920 nmol/mg/min

More lines, now with the values ahead:

Row | response | Variant
24 | ~0 nmol/mg/min | chain 1 Y13A
25 | ~0 nmol/mg/min | chain 1 L10A

Variants of: B4
Assay: yeast two-hybrid; read off a plot

Row | Variant | response
26 | chain 1 V5A | ~190 nmol/mg/min
27 | chain 1 Y6A | ~840 nmol/mg/min
28 | chain 1 W9A | ~130 nmol/mg/min
29 | chain 1 Y13A | ~0 nmol/mg/min
30 | chain 1 G12A | ~1800 nmol/mg/min

Continued, values first:

Row | response | Variant
31 | ~0 nmol/mg/min | chain 1 L10A
32 | ~900 nmol/mg/min | chain 1 Q8A
33 | ~910 nmol/mg/min | chain 1 S7A

Variants of: B5
Assay: yeast two-hybrid; read off a plot

Row | Variant | response
34 | chain 1 L13A | ~0 nmol/mg/min
35 | chain 1 F6A | ~0 nmol/mg/min
36 | chain 1 L10A | ~0 nmol/mg/min

The remaining lines, values ahead:

Row | response | Variant
37 | ~670 nmol/mg/min | chain 1 R11A
38 | ~900 nmol/mg/min | chain 1 R8A
39 | ~100 nmol/mg/min | chain 1 S7A

Variants of: B6
Assay: yeast two-hybrid; read off a plot

Row | Variant | response
40 | chain 1 L13A | ~0 nmol/mg/min
41 | chain 1 S7A | ~160 nmol/mg/min
42 | chain 1 R11A | ~1300 nmol/mg/min

Now from value to variant:

Row | response | Variant
43 | ~0 nmol/mg/min | chain 1 L10A
44 | ~1000 nmol/mg/min | chain 1 R8A

Variants of: B7
Assay: yeast two-hybrid; read off a plot

Row | Variant | response
45 | chain 1 L10A | ~0 nmol/mg/min
46 | chain 1 S7A | ~2500 nmol/mg/min
47 | chain 1 R8A | ~0 nmol/mg/min

Second part, the variant after the results:

Row | response | Variant
48 | ~0 nmol/mg/min | chain 1 F6A
49 | ~0 nmol/mg/min | chain 1 R11A
50 | ~0 nmol/mg/min | chain 1 L13A

Variants of: B8
Assay: yeast two-hybrid; read off a plot

Row | Variant | response
51 | chain 1 V81A | ~960 nmol/mg/min
52 | chain 1 R85A | ~2100 nmol/mg/min
53 | chain 1 V99A | ~640 nmol/mg/min

Further lines, results first:

Row | response | Variant
54 | ~850 nmol/mg/min | chain 1 I95A
55 | ~0 nmol/mg/min | chain 1 F78A
56 | ~330 nmol/mg/min | chain 1 R103A
